# According to patent publication US20160229920A1 (University of Texas, published 2016):
# B1: tetrameric anti-HER3 (Ab6tet) (antibody)
# heavy: not shown
# light: DIELTQPASVSGSPGQSITISCTGTSSDVGSYNVVSWYQQHPGKAPKLIIYEVSQRPSGVSNRFSGSKSGNTASLTISGLQTEDEADYYCCSYAGSSIFVIFGGGTKLEIKRTVAAPSVFIFPPSDEQLKSGTASVVCLLNNFYPREAKVQWKVDNALQSGNSQESVTEQDSKDSTYSLSSTLTLSKADYEKHKVYACEVTHQGLSSPVTKSFNRGEC
# notes: Residues 1-19 are the leader; also called tetravalent anti-HER3 antibody; multivalent anti-HER3 antibody
# B2: bispecific trastuzumab with anti-HER3 Ab6 scFv (TAb6) (bispecific antibody)
# heavy: not shown
# light: DIELTQSPSSLSASVGDRVTITCRASQDVNTAVAWYQQKPGKAPKLLIYSASFLYSGVPSRFSGSRSGTDFTLTISSLQPEDFATYYCQQHYTTPPTFGQGTKLEIKRTVAAPSVFIFPPSDEQLKSGTASVVCLLNNFYPREAKVQWKVDNALQSGNSQESVTEQDSKDSTYSLSSTLTLSKADYEKHKVYACEVTHQGLSSPVTKSFNRGEC
# notes: Morrison format, expressed in CHO cells; also called bispecific anti-HER2/HER3 antibody
# Tests used:
# [1] = target: T1, HER3 on the plasma membrane of SK-BR-3 and BT-474 breast cancer cells (human, UniProt P21860 20-1342); experiment: fluorescence microscopy of SK-BR-3 cells pulsed with 50 nM antibody for 5 min at 37 C and chased 0, 10 or 20 min; detection with Alexa 555 anti-human IgG, co-stain EEA-1 [Continued]
# T1 construct: whole, on cells; also called cell surface HER3
# [2] = target: T1, HER3 on the plasma membrane of SK-BR-3 …; experiment: fluorescence microscopy of SK-BR-3 cells treated with 50 nM antibody for 15 min at 37 C and chased 45 min; detection with Alexa 555 anti-human IgG, co-stain LAMP-1; the cells carry HER2 and HER3 and the staining of the bispecific is not separated between the two
# Method: Cells were fixed, permeabilized and stained for LAMP-1. […] Scale bars=2 μm.
# For fixation, cells were treated with 1.7% (w/v) paraformaldehyde for 10 minutes at 37° C. and then permeabilized with 0.05% (v/v) saponin for 10 minutes at room temperature in PBS. […] Cells were washed twice with PBS between each incubation step and were stored at 4° C. in 1% BSA/PBS.
binder,measurement,setting,value
B1,binding result,[1],binds
B2,binding result,[2],binds
